Source: US20110091994A1, “Methods for Screening Compounds for Treating and/or Preventing an Hepatitis C Virus Infection” (priority 2008, published 2011)
Where two headings read alike, the source gives them in different places.

Key:
[1] = biological target: T1, HCV ORFs (Gal4-DB fusions) (Hepatitis C virus genotype 1b, UniProt Q9WMX2); format: binding, HCV genotype 1b, isolate con1; settings: human protein as prey
T1 construct: expressed in transfected cells; host or cells: Saccharomyces cerevisiae MAV203 (IMAP1) / AH109 (IMAP2)

[2] = tested on: HCV ORFs (Gal4-DB fusions); format: binding, HCV genotype 1b, isolate con1; settings: human protein listed by gene symbol; the value names the HCV protein it interacts with
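Note: yeast two-hybrid screens using HCV genotype 1b proteins fused to Gal4-DB as baits against prey cDNA libraries from human spleen and foetal brain, IMAP1 via transformation and IMAP2 via mating.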

Molecule | IMAP Y2H IMAP2 (number of IST) ([1]; HCV protein NS3 as bait) | Interaction with viral protein [2] | IMAP Y2H IMAP2 (number of IST) ([1]; HCV protein NS4A as bait) | IMAP Y2H IMAP2 (number of IST) ([1]; HCV protein NS5A as bait)
ZMYM2 (protein, UniProt Q9UBW7 1-1377, looked up) Zinc finger MYM-type protein 2: MDTSSVGGLELTDQTPVLLGSTAMATSLTNVGNSFSGPANPLVSRSNKFQNSSVEDDDDVVFIEPVQPPPPSVPVVADQRTITFTSSKNEELQGNDSKITPSSKELASQKGSVSETIVIDDEEDMETNQGQEKNSSNFIERRPPETKNRTNDVDFSTSSFSRSKVNAGMGNSGITTEPDSEIQIANVTTLETGVSSVNDGQLENTDGRDMNLMITHVTSLQNTNLGDVSNGLQSSNFGVNIQTYTPSLTSQTKTGVGPFNPGRMNVAGDVFQNGESATHHNPDSWISQSASFPRNQKQPGVDSLSPVASLPKQIFQPSVQQQPTKPVKVTCANCKKPLQKGQTAYQRKGSAHLFCSTTCLSSFSHKPAPKKLCVMCKKDITTMKGTIVAQVDSSESFQEFCSTSCLSLYEDKQNPTKGALNKSRCTICGKLTEIRHEVSFKNMTHKLCSDHCFNRYRMANGLIMNCCEQCGEYLPSKGAGNNVLVIDGQQKRFCCQSCVSEYKQVGSHPSFLKEVRDHMQDSFLMQPEKYGKLTTCTGCRTQCRFFDMTQCIGPNGYMEPYCSTACMNSHKTKYAKSQSLGIICHFCKRNSLPQYQATMPDGKLYNFCNSSCVAKFQALSMQSSPNGQFVAPSDIQLKCNYCKNSFCSKPEILEWENKVHQFCSKTCSDDYKKLHCIVTYCEYCQEEKTLHETVNFSGVKRPFCSEGCKLLYKQDFARRLGLRCVTCNYCSQLCKKGATKELDGVVRDFCSEDCCKKFQDWYYKAARCDCCKSQGTLKERVQWRGEMKHFCDQHCLLRFYCQQNEPNMTTQKGPENLHYDQGCQTSRTKMTGSAPPPSPTPNKEMKNKAVLCKPLTMTKATYCKPHMQTKSCQTDDTWRTEYVPVPIPVPVYIPVPMHMYSQNIPVPTTVPVPVPVPVFLPAPLDSSEKIPAAIEELKSKVSSDALDTELLTMTDMMSEDEGKTETTNINSVIIETDIIGSDLLKNSDPETQSSMPDVPYEPDLDIEIDFPRAAEELDMENEFLLPPVFGEEYEEQPRPRSKKKGAKRKAVSGYQSHDDSSDNSECSFPFKYTYGVNAWKHWVKTRQLDEDLLVLDELKSSKSVKLKEDLLSHTTAELNYGLAHFVNEIRRPNGENYAPDSIYYLCLGIQEYLCGSNRKDNIFIDPGYQTFEQELNKILRSWQPSILPDGSIFSRVEEDYLWRIKQLGSHSPVALLNTLFYFNTKYFGLKTVEQHLRLSFGTVFRHWKKNPLTMENKACLRYQVSSLCGTDNEDKITTGKRKHEDDEPVFEQIENTANPSRCPVKMFECYLSKSPQNLNQRMDVFYLQPECSSSTDSPVWYTSTSLDRNTLENMLVRVLLVKDIYDKDNYELDEDTD | 2 | NS3 |  | 
TRAF3IP3 (protein, UniProt Q9Y228 1-551, looked up) TRAF3-interacting …: MISPDPRPSPGLARWAESYEAKCERRQEIRESRRCRPNVTTCRQVGKTLRIQQREQLQRARLQQFFRRRNLELEEKGKAQHPQAREQGPSRRPGQVTVLKEPLSCARRISSPREQVTGTSSEVFPAQHPPPSGICRDLSDHLSSQAGGLPPQDTPIKKPPKHHRGTQTKAEGPTIKNDASQQTNYGVAVLDKEIIQLSDYLKEALQRELVLKQKMVILQDLLSTLIQASDSSWKGQLNEDKLKGKLRSLENQLYTCTQKYSPWGMKKVLLEMEDQKNSYEQKAKESLQKVLEEKMNAEQQLQSTQRSLALAEQKCEEWRSQYEALKEDWRTLGTQHRELESQLHVLQSKLQGADSRDLQMNQALRFLENEHQQLQAKIECLQGDRDLCSLDTQDLQDQLKRSEAEKLTLVTRVQQLQGLLQNQSLQLQEQEKLLTKKDQALPVWSPKSFPNEVEPEGTGKEKDWDLRDQLQKKTLQLQAKEKECRELHSELDNLSDEYLSCLRKLQHCREELNQSQQLPPRRQCGRWLPVLMVVIAAALAVFLANKDNLMI |  | NS4A | 1 | 
ACLY (protein, UniProt P53396 1-1101, looked up) ATP-citrate synthase: MSAKAISEQTGKELLYKFICTTSAIQNRFKYARVTPDTDWARLLQDHPWLLSQNLVVKPDQLIKRRGKLGLVGVNLTLDGVKSWLKPRLGQEATVGKATGFLKNFLIEPFVPHSQAEEFYVCIYATREGDYVLFHHEGGVDVGDVDAKAQKLLVGVDEKLNPEDIKKHLLVHAPEDKKEILASFISGLFNFYEDLYFTYLEINPLVVTKDGVYVLDLAAKVDATADYICKVKWGDIEFPPPFGREAYPEEAYIADLDAKSGASLKLTLLNPKGRIWTMVAGGGASVVYSDTICDLGGVNELANYGEYSGAPSEQQTYDYAKTILSLMTREKHPDGKILIIGGSIANFTNVAATFKGIVRAIRDYQGPLKEHEVTIFVRRGGPNYQEGLRVMGEVGKTTGIPIHVFGTETHMTAIVGMALGHRPIPNQPPTAAHTANFLLNASGSTSTPAPSRTASFSESRADEVAPAKKAKPAMPQDSVPSPRSLQGKSTTLFSRHTKAIVWGMQTRAVQGMLDFDYVCSRDEPSVAAMVYPFTGDHKQKFYWGHKEILIPVFKNMADAMRKHPEVDVLINFASLRSAYDSTMETMNYAQIRTIAIIAEGIPEALTRKLIKKADQKGVTIIGPATVGGIKPGCFKIGNTGGMLDNILASKLYRPGSVAYVSRSGGMSNELNNIISRTTDGVYEGVAIGGDRYPGSTFMDHVLRYQDTPGVKMIVVLGEIGGTEEYKICRGIKEGRLTKPIVCWCIGTCATMFSSEVQFGHAGACANQASETAVAKNQALKEAGVFVPRSFDELGEIIQSVYEDLVANGVIVPAQEVPPPTVPMDYSWARELGLIRKPASFMTSICDERGQELIYAGMPITEVFKEEMGIGGVLGLLWFQKRLPKYSCQFIEMCLMVTADHGPAVSGAHNTIICARAGKDLVSSLTSGLLTIGDRFGGALDAAAKMFSKAFDSGIIPMEFVNKMKKEGKLIMGIGHRVKSINNPDMRVQILKDYVRQHFPATPLLDYALEVEKITTSKKPNLILNVDGLIGVAFVDMLRNCGSFTREEADEYIDIGALNGIFVLGRSMGFIGHYLDQKRLKQGLYRHPWDDISYVLPEHMSM |  | NS5A |  | 1
ARFIP1 (protein, UniProt P53367 2-373, looked up) Arfaptin-1: AQESPKNSAAEIPVTSNGEVDDSREHSFNRDLKHSLPSGLGLSETQITSHGFDNTKEGVIEAGAFQGSPAPPLPSVMSPSRVAASRLAQQGSDLIVPAGGQRTQTKSGPVILADEIKNPAMEKLELVRKWSLNTYKCTRQIISEKLGRGSRTVDLELEAQIDILRDNKKKYENILKLAQTLSTQLFQMVHTQRQLGDAFADLSLKSLELHEEFGYNADTQKLLAKNGETLLGAINFFIASVNTLVNKTIEDTLMTVKQYESARIEYDAYRTDLEELNLGPRDANTLPKIEQSQHLFQAHKEKYDKMRNDVSVKLKFLEENKVKVLHNQLVLFHNAIAAYFAGNQKQLEQTLKQFHIKLKTPGVDAPSWLEEQ |  | NS5A |  | 9
CCDC100 (protein, UniProt Q8N960 1-986, looked up) Centrosomal protein of 120 kDa: MVSKSDQLLIVVSILEGRHFPKRPKHMLVVEAKFDGEQLATDPVDHTDQPEFATELAWEIDRKALHQHRLQRTPIKLQCFALDPVTSAKETIGYIVLDLRTAQETKQAPKWYQLLSNKYTKFKSEIQISIALETDTKPPVDSFKAKGAPPRDGKVPAILAGLDPRDIVAVLNEEGGYHQIGPAEYCTDSFIMSVTIAFATQLEQLIPCTMKLPERQPEFFFYYSLLGNDVTNEPFNDLINPNFEPERASVRIRSSVEILRVYLALQSKLQIHLCCGDQSLGSTEIPLTGLLKKGSTEINQHPVTVEGAFTLDPPNRAKQKLAPIPVELAPTVGVSVALQREGIDSQSLIELKTQNEHEPEHSKKKVLTPIKEKTLTGPKSPTVSPVPSHNQSPPTKDDATESEVESLQYDKDTKPNPKASSSVPASLAQLVTTSNASEVASGQKIAVPATSHHFCFSIDLRSIHALEIGFPINCILRYSYPFFGSAAPIMTNPPVEVRKNMEVFLPQSYCAFDFATMPHQLQDTFLRIPLLVELWHKDKMSKDLLLGIARIQLSNILSSEKTRFLGSNGEQCWRQTYSESVPVIAAQGSNNRIADLSYTVTLEDYGLVKMREIFISDSSQGVSAVQQKPSSLPPAPCPSEIQTEPRETLEYKAALELEMWKEMQEDIFENQLKQKELAHMQALAEEWKKRDRERESLVKKKVAEYTILEGKLQKTLIDLEKREQQLASVESELQREKKELQSERQRNLQELQDSIRRAKEDCIHQVELERLKIKQLEEDKHRLQQQLNDAENKYKILEKEFQQFKDQQNNKPEIRLQSEINLLTLEKVELERKLESATKSKLHYKQQWGRALKELARLKQREQESQMARLKKQQEELEQMRLRYLAAEEKDTVKTERQELLDIRNELNRLRQQEQKQYQDSTEIASGKKDGPHGSVLEEGLDDYLTRLIEERDTLMRTGVYNHEDRIISELDRQIREILAKSNASN |  | NS5A |  | 1
IGLL1 (protein, UniProt P15814 38-213, looked up) Immunoglobulin lambda-like …: LLRPTAASQSRALGPGAPGGSSRSSLRSRWGRFLLQRGSWTGPRCWPRGFQSKHNSVTHVFGSGTQLTVLSQPKATPSVTLFPPSSEELQANKATLVCLMNDFYPGILTVTWKADGTPITQGVEMTTPSKQSNNKYAASSYLSLTPEQWRSRRSYSCQVMHEGSTVEKTVAPAECS |  | NS5A |  | 1
LIMS2 (protein, UniProt Q7Z4I7 1-341, looked up) LIM and senescent cell …: MTGSNMSDALANAVCQRCQARFSPAERIVNSNGELYHEHCFVCAQCFRPFPEGLFYEFEGRKYCEHDFQMLFAPCCGSCGEFIIGRVIKAMNNNWHPGCFRCELCDVELADLGFVKNAGRHLCRPCHNREKAKGLGKYICQRCHLVIDEQPLMFRSDAYHPDHFNCTHCGKELTAEARELKGELYCLPCHDKMGVPICGACRRPIEGRVVNALGKQWHVEHFVCAKCEKPFLGHRHYEKKGLAYCETHYNQLFGDVCYNCSHVIEGDVVSALNKAWCVSCFSCSTCNSKLTLKNKFVEFDMKPVCKRCYEKFPLELKKRLKKLSELTSRKAQPKATDLNSA |  | NS5A |  | 1
NFE2 (protein, UniProt Q16621 1-373, looked up) Transcription factor NF-E2 45 …: MSPCPPQQSRNRVIQLSTSELGEMELTWQEIMSITELQGLNAPSEPSFEPQAPAPYLGPPPPTTYCPCSIHPDSGFPLPPPPYELPASTSHVPDPPYSYGNMAIPVSKPLSLSGLLSEPLQDPLALLDIGLPAGPPKPQEDPESDSGLSLNYSDAESLELEGTEAGRRRSEYVEMYPVEYPYSLMPNSLAHSNYTLPAAETPLALEPSSGPVRAKPTARGEAGSRDERRALAMKIPFPTDKIVNLPVDDFNELLARYPLTESQLALVRDIRRRGKNKVAAQNCRKRKLETIVQLERELERLTNERERLLRARGEADRTLEVMRQQLTELYRDIFQHLRDESGNSYSPEEYALQQAADGTIFLVPRGTKMEATD |  | NS5A |  | 1
